According to patent US20230220589A1:
Positions count from the first letter of the chain named. Values belong to the binder of their own block, whether it stands above or below them.

Assays:
[1] = target: M44-modified D NTAA target peptides; test: encoding assay; P2 A;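 further: fraction of recording tags encoded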
[2] = target: M44-modified E NTAA target peptides; test: encoding assay; P2 A;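 further: fraction of recording tags encoded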
[3] = target: M44-modified P NTAA target peptides; test: encoding assay; P2 A;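 further: fraction of recording tags encoded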
[4] = target: M44-modified S NTAA target peptides; test: encoding assay; P2 A
[5] = target: M44-modified T NTAA target peptides; test: encoding assay; P2 A;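 further: fraction of recording tags encoded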
[6] = target: M44-modified G NTAA target peptides (M44-G-P2-peptide); test: encoding assay; P2 G;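 further: fraction of recording tags encoded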
[7] = target: M44-modified E NTAA target peptides; test: encoding assay; P2 H;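 further: fraction of recording tags encoded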
[8] = target: M44-modified G NTAA target peptides (M44-G-P2-peptide); test: encoding assay; P2 H;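 further: fraction of recording tags encoded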
[9] = target: M44-modified S NTAA target peptides; test: encoding assay; P2 H
[10] = target: M44-modified P NTAA target peptides; test: encoding assay; P2 Q;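 further: fraction of recording tags encoded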
[11] = target: M44-modified A NTAA target peptides (M44-A-P2-peptide); test: Gini coefficient of P2 tolerance from multiplex encoding heatmap
[12] = target: M44-modified A NTAA target peptides (M44-A-P2-peptide); test: Gini coefficient of P1 selectivity from multiplex encoding heatmap
[13] = target: M17-modified A NTAA target peptides; test: encoding assay; P2 A;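 further: fraction of recording tags encoded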
[14] = target: M17-modified D NTAA target peptides; test: encoding assay; P2 A;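 further: fraction of recording tags encoded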
[15] = target: M17-modified E NTAA target peptides; test: encoding assay; P2 A;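 further: fraction of recording tags encoded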
[16] = target: M17-modified F NTAA target peptides; test: encoding assay; P2 A;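 further: fraction of recording tags encoded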
[17] = target: M17-modified G NTAA target peptides; test: encoding assay; P2 A;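 further: fraction of recording tags encoded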
[18] = target: M17-modified H NTAA target peptides; test: encoding assay; P2 A;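 further: fraction of recording tags encoded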
[19] = target: M17-modified I NTAA target peptides; test: encoding assay; P2 A;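 further: fraction of recording tags encoded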
[20] = target: M17-modified L NTAA target peptides; test: encoding assay; P2 A;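 further: fraction of recording tags encoded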
[21] = target: M17-modified M NTAA target peptides; test: encoding assay; P2 A;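 further: fraction of recording tags encoded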
[22] = target: M17-modified N NTAA target peptides; test: encoding assay; P2 A;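 further: fraction of recording tags encoded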
[23] = target: M17-modified P NTAA target peptides; test: encoding assay; P2 A;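 further: fraction of recording tags encoded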
[24] = target: M17-modified Q NTAA target peptides; test: encoding assay; P2 A;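 further: fraction of recording tags encoded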
[25] = target: M17-modified T NTAA target peptides; test: encoding assay; P2 A;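 further: fraction of recording tags encoded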
[26] = target: M17-modified V NTAA target peptides; test: encoding assay; P2 A;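 further: fraction of recording tags encoded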
[27] = target: M17-modified W NTAA target peptides; test: encoding assay; P2 A;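 further: fraction of recording tags encoded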
[28] = target: M17-modified Y NTAA target peptides (M17-Y-P2-peptide); test: encoding assay; P2 A;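 further: fraction of recording tags encoded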
[29] = target: M17-modified A NTAA target peptides; test: encoding assay; P2 H;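 further: fraction of recording tags encoded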
[30] = target: M17-modified D NTAA target peptides; test: encoding assay; P2 H;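 further: fraction of recording tags encoded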
[31] = target: M17-modified E NTAA target peptides; test: encoding assay; P2 H;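 further: fraction of recording tags encoded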
[32] = target: M17-modified F NTAA target peptides; test: encoding assay; P2 H;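 further: fraction of recording tags encoded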
[33] = target: M17-modified G NTAA target peptides; test: encoding assay; P2 H;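 further: fraction of recording tags encoded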
[34] = target: M17-modified H NTAA target peptides; test: encoding assay; P2 H;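 further: fraction of recording tags encoded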
[35] = target: M17-modified I NTAA target peptides; test: encoding assay; P2 H;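 further: fraction of recording tags encoded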
[36] = target: M17-modified L NTAA target peptides; test: encoding assay; P2 H;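 further: fraction of recording tags encoded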
[37] = target: M17-modified M NTAA target peptides; test: encoding assay; P2 H;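 further: fraction of recording tags encoded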
[38] = target: M17-modified N NTAA target peptides; test: encoding assay; P2 H;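 further: fraction of recording tags encoded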
[39] = target: M17-modified P NTAA target peptides; test: encoding assay; P2 H;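 further: fraction of recording tags encoded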
[40] = target: M17-modified Q NTAA target peptides; test: encoding assay; P2 H;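 further: fraction of recording tags encoded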
[41] = target: M17-modified S NTAA target peptides; test: encoding assay; P2 H;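 further: fraction of recording tags encoded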
[42] = target: M17-modified T NTAA target peptides; test: encoding assay; P2 H;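 further: fraction of recording tags encoded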
[43] = target: M17-modified V NTAA target peptides; test: encoding assay; P2 H;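 further: fraction of recording tags encoded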
[44] = target: M17-modified W NTAA target peptides; test: encoding assay; P2 H;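 further: fraction of recording tags encoded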
[45] = target: M17-modified Y NTAA target peptides (M17-Y-P2-peptide); test: encoding assay; P2 H;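 further: fraction of recording tags encoded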
[46] = target: M17-modified E NTAA target peptides; test: encoding assay; P2 Q;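 further: fraction of recording tags encoded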
[47] = target: M17-modified F NTAA target peptides; test: encoding assay; P2 Q;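 further: fraction of recording tags encoded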
[48] = target: M17-modified G NTAA target peptides; test: encoding assay; P2 Q;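 further: fraction of recording tags encoded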
[49] = target: M17-modified N NTAA target peptides; test: encoding assay; P2 Q;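 further: fraction of recording tags encoded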
[50] = target: M17-modified Q NTAA target peptides; test: encoding assay; P2 Q;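 further: fraction of recording tags encoded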
[51] = target: M17-modified V NTAA target peptides; test: encoding assay; P2 Q;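 further: fraction of recording tags encoded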
[52] = target: M17-modified W NTAA target peptides; test: encoding assay; P2 S;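 further: fraction of recording tags encoded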
[53] = target: M17-modified W NTAA target peptides; test: encoding assay; P2 G;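 further: fraction of recording tags encoded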
[54] = target: M17-modified M NTAA target peptides; test: encoding assay; P2 Q;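 further: fraction of recording tags encoded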

encoding yield [1]: 0.02
encoding yield [2]: 0.02
encoding yield [3]: 0.01
encoding yield [4]: 0.01
encoding yield [5]: 0.01
encoding yield [6]: 0.01
encoding yield [7]: 0.03
encoding yield [8]: 0.01
encoding yield [9]: 0.01
encoding yield [10]: 0.01
P1 score [12]: 0.31
B1: engineered M44-A binder (SEQ ID NO: 42) (designed binder, not shown: small tags and cut ends; large carriers)
chain: QVSVQPNFQQDKFLGRWFVAGLASNSSWDREKVAALSGAKMVVAPATDGGLNVTRTMLRKNQCETYTGLLQPAGSLGSYSWRSPHPGSTGSESVVETDYDQYALVYGQGSKGPGEDLRAAALWSRTQTPRAELKEKFTAFSKAQGFTEDTIVFLPQTDKCMTEQ
P2 score [11]: 0.376

encoding yield [1]: 0.02
encoding yield [2]: 0.02
encoding yield [3]: 0.01
encoding yield [4]: 0.01
encoding yield [5]: 0.01
encoding yield [7]: 0.02
encoding yield [8]: 0.01
encoding yield [9]: 0.01
encoding yield [10]: 0.01
B2: engineered M44-L binder (SEQ ID NO: 31) (designed binder, not shown: small tags and cut ends; large carriers)
chain: QDSTQNLIPAPPLISVPLQPGFWTERFQGRWFLVGFAGNAVQKERQSRLTMQSLILELQEDNSYNITAINVRGQGCRYIISTLVPSSRPGQFTLGNIHSYPQIQSLDVQVADTDYDQFAMVFLQGTSENKQYFEVALAGRTKGLSDELKERFVSFAKSLGLKDNNIVFSVPTDQCIDN

encoding yield [13]: 0.02
encoding yield [14]: 0.01
encoding yield [15]: 0.01
encoding yield [16]: 0.04
encoding yield [17]: 0.02
encoding yield [18]: 0.02
encoding yield [19]: 0.02
encoding yield [20]: 0.02
encoding yield [21]: 0.02
encoding yield [22]: 0.02
encoding yield [23]: 0.01
encoding yield [24]: 0.02
encoding yield [25]: 0.01
encoding yield [26]: 0.01
encoding yield [27]: 0.04
encoding yield [28]: 0.12
encoding yield [29]: 0.02
encoding yield [30]: 0.02
encoding yield [31]: 0.01
encoding yield [32]: 0.02
encoding yield [33]: 0.01
encoding yield [34]: 0.03
encoding yield [35]: 0.03
encoding yield [36]: 0.02
encoding yield [37]: 0.02
encoding yield [38]: 0.03
encoding yield [39]: 0.03
encoding yield [40]: 0.02
encoding yield [41]: 0.01
encoding yield [42]: 0.02
encoding yield [43]: 0.03
encoding yield [44]: 0.02
encoding yield [45]: 0.07
encoding yield [46]: 0.02
encoding yield [47]: 0.04
encoding yield [48]: 0.02
encoding yield [49]: 0.03
encoding yield [50]: 0.01
encoding yield [51]: 0.03
B3: engineered M17-Y binder (SEQ ID NO: 61) (designed binder, not shown: small tags and cut ends; large carriers)
chain: TVPDRSEIAGKWYVVALASNTEFYLREKDWVKSAMARISFLGEDELKVSSAVPSPNGCYKVERTWKKTSDDGEVYNSRAAKLKVEVLDTDYKSYAVIYATRVKDGRTDHQMILYSRSPEVSPAATAIFRKLAGERNYTDEMVAMLPRQEECTVDEV

encoding yield [52]: 0.03
encoding yield [13]: 0.02
encoding yield [14]: 0.02
encoding yield [15]: 0.02
encoding yield [16]: 0.09
encoding yield [17]: 0.03
encoding yield [18]: 0.02
encoding yield [19]: 0.03
encoding yield [20]: 0.04
encoding yield [21]: 0.03
encoding yield [22]: 0.03
encoding yield [23]: 0.01
encoding yield [24]: 0.02
encoding yield [25]: 0.01
encoding yield [26]: 0.02
encoding yield [27]: 0.08
encoding yield [28]: 0.24
encoding yield [53]: 0.04
encoding yield [29]: 0.03
encoding yield [30]: 0.03
encoding yield [31]: 0.02
encoding yield [32]: 0.02
encoding yield [33]: 0.02
encoding yield [34]: 0.02
encoding yield [35]: 0.03
encoding yield [36]: 0.02
encoding yield [37]: 0.03
encoding yield [38]: 0.03
encoding yield [39]: 0.04
encoding yield [40]: 0.03
encoding yield [41]: 0.02
encoding yield [42]: 0.03
encoding yield [43]: 0.02
encoding yield [44]: 0.03
encoding yield [45]: 0.07
encoding yield [46]: 0.02
encoding yield [47]: 0.04
encoding yield [48]: 0.01
encoding yield [54]: 0.01
encoding yield [49]: 0.04
encoding yield [50]: 0.01
encoding yield [51]: 0.04
B4: upgraded binder after additional maturation round (SEQ ID NO: 62) (designed binder, not shown: small tags and cut ends; large carriers)
chain: B3 chain with E27G, W30R, A36V, L41Q, G105R, E119D
